{"source": "paper doi:10.1101/2025.09.17.676191", "about": "(bioRxiv, 2025)", "target": "the molecule itself", "test": "cryo-EM structure"}
{"protein": "wild-type mouse TRPV3 channel (natural protein, UniProt Q8K424 1-791, looked up) MNAHSKEMAPLMGKRTTAPGGNPVVLTEKRPADLTPTKKSAHFFLEIEGFEPNPTVTKTSPPIFSKPMDSNIRQCLSGNCDDMDSPQSPQDDVTETPSNPNSPSANLAKEEQRQKKKRLKKRIFAAVSEGCVEELRELLQDLQDLCRRRRGLDVPDFLMHKLTASDTGKTCLMKALLNINPNTKEIVRILLAFAEENDILDRFINAEYTEEAYEGQTALNIAIERRQGDITAVLIAAGADVNAHAKGVFFNPKYQHEGFYFGETPLALAACTNQPEIVQLLMENEQTDITSQDSRGNNILHALVTVAEDFKTQNDFVKRMYDMILLRSGNWELETMRNNDGLTPLQLAAKMGKAEILKYILSREIKEKPLRSLSRKFTDWAYGPVSSSLYDLTNVDTTTDNSVLEIIVYNTNIDNRHEMLTLEPLHTLLHTKWKKFAKYMFFLSFCFYFFYNITLTLVSYYRPREDEDLPHPLALTHKMSWLQLLGRMFVLIWATCISVKEGIAIFLLRPSDLQSILSDAWFHFVFFVQAVLVILSVFLYLFAYKEYLACLVLAMALGWANMLYYTRGFQSMGMYSVMIQKVILHDVLKFLFVYILFLLGFGVALASLIEKCSKDKKDCSSYGSFSDAVLELFKLTIGLGDLNIQQNSTYPILFLFLLITYVILTFVLLLNMLIALMGETVENVSKESERIWRLQRARTILEFEKMLPEWLRSRFRMGELCKVADEDFRLCLRINEVKWTEWKTHVSFLNEDPGPIRRTADLNKIQDSSRSNSKTTLYAFDELDEFPETSV", "values": [{"measurement": "stoichiometry N", "result": 4}]}
